{
  "source": "patent US20100015126A1",
  "about": "“Methods of Binding of Cross-Beta Structures By Chaperones” (priority 2006, published 2010)",
  "molecular_target": "T1, human BiP (Homo sapiens, UniProt P11021)",
  "T1 construct": "The human BiP gene except the signal peptide encoding region was obtained from Geneart (Germany); linker […]; made in house; host or cells: HEK 293E cells, transient transfection, PABC674 vector; secreted into the medium",
  "T1 sequence (P11021 19-654)": "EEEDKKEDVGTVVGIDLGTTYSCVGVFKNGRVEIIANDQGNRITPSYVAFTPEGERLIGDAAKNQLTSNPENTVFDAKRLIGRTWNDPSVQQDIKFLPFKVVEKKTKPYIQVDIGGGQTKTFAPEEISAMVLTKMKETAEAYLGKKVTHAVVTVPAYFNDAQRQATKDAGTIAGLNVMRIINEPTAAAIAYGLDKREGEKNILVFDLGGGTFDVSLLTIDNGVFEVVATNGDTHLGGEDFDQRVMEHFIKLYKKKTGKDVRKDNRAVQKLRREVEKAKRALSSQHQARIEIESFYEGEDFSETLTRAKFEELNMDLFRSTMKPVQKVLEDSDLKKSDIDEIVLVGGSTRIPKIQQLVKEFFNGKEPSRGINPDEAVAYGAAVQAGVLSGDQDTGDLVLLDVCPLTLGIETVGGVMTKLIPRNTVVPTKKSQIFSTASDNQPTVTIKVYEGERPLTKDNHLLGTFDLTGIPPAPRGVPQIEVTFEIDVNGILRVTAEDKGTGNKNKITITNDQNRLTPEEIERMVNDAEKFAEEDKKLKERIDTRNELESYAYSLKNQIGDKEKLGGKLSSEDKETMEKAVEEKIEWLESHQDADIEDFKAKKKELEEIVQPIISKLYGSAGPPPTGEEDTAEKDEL",
  "assay": "Competition ELISA: BiP binding to misfolded proteins under influence of crossbeta binding compounds",
  "details": "fixed sub-optimal BiP concentration",
  "procedure": "Binding of chaperones to immobilized (misfolded) protein ligands was determined using an enzyme linked immuno sorbent assay (ELISA) approach. For this purpose 50 μl/well of potential ligands at indicated concentrations or coat buffer only for control and background measurement purposes, were coated overnight at 4° C. or coated for 1 h at room temperature, with motion, in 50 mM NaHCO3 pH 9.6 (coat buffer). In general, ligands were coated at 5 μg/ml, unless stated otherwise. For example, BiP binding peptides 6BB# and oxLDL were coated at 50 μg/ml. Native haemoglobin (Sigma-Aldrich, H7379), albumin, IgIV Gammagard and ovalbumin controls were prepared from lyophilized stocks. The controls were prepared by dissolving lyophilized proteins at 1 mg/ml in PBS upon resuspending by pipetting, followed by a 30 minutes period at the roller device, at room temperature. The protein solutions were centrifuged for 10 minutes at 16,000*g and diluted in coat buffer. After coating the plates were washed at least three times with 50 mM Tris-HCl pH 7.3, 150 mM NaCl, 0.1% v/v Tween20, and blocked with Blocking reagent (Roche Diagnostics, Almere, The Netherlands; 11112589001), for 1 h at room temperature, with motion. Plates were washed three times and incubated in triplicate with indicated chaperone dilution series, at 50 μl/well, for 1 h at room temperature, with constant motion. For HSP90, 5 mM DTT is incorporated in the binding buffer (PBS/0.1% Tween20) to avoid unwanted disulfide bond formation of the HSP90. […] After four wash cycles, secondary antibodies were added to the wells when required, 50 μl/well, for 45′ at room temperature, with motion. RAMPO and SWARPO were used at 3000 times dilution. […] In a second experiment with more immobilized misfolded proteins and controls, the detection of bound HSP90 with the mix of two anti-HSP90 antibodies was achieved by mixing 1:1500 SWARPO with 1:3000 RAMPO. After 5 washes with wash buffer followed by two washes with PBS, binding of antibodies was assessed. […] Plates were read at 450 nm. Triplicates were averaged and standard deviations calculated. […] Subsequently, sub-optimal concentrations of chaperones for binding to misfolded protein ligands are determined, and these concentrations are used for inhibition studies.\nIn a subsequent study we analysed whether BiP interacts directly with the crossbeta structure, by performing ELISA binding studies with a fixed sub-optimal concentration of BiP and concentration series of crossbeta binding compounds. […]",
  "data": [
    {"molecule": "dOVA standard: heat-denatured chicken ovalbumin (protein) GSIGAASMEFCFDVFKELKVHHANENIFYCPIAIMSALAMVYLGAKDSTRTQINKVVRFDKLPGFGDSIEAQCGTSVNVHSSLRDILNQITKPNDVYSFSLASRLYAEERYPILPEYLQCVKELYRGGLEPINFQTAADQARELINSWVESQTNGIIRNVLQPSSVDSQTAMVLVNAIVFKGLWEKAFKDEDTQAMPFRVTEQESKPVQMMYQIGLFRVASMASEKMKILELPFASGTMSMLVLLPDEVSGLEQLESIINFEKLTEWTSSNVMEERKIKVYLPRMKMEEKYNLTSVLMAMGITDVFSSSANLSGISSAESLKISQAVHAAHAEINEAGREVVGSAEAGVDAASVSEEFRADHPFLFCIKHIATNAVLFFGRCVSP", "values": [
      {"measurement": "Influence of K2P tPA on interaction of BiP with misfolded protein", "setting": "10 mM ε-amino caproic acid", "result": "−"},
      {"measurement": "Influence of tPA on interaction of BiP with misfolded protein", "setting": "10 mM ε-amino caproic acid", "result": "↓ (a ↓ sign refers to inhibited abolished binding of BiP)"},
      {"measurement": "Influence of Congo red on interaction of BiP with misfolded protein", "setting": "concentration series of Congo red", "result": "↓ (a ↓ sign refers to inhibited abolished binding of BiP)"},
      {"measurement": "Influence of ThS on interaction of BiP with misfolded protein", "setting": "concentration series of ThS", "result": "↓ (a ↓ sign refers to inhibited abolished binding of BiP)"}
    ]}
  ]
}
